Blank lines part the entries; values can stand above or below the molecule they belong to.
Key:
[1] = target: T1, PpD-KdpD (Pseudomonas putida, UniProt Q88J13); assay: coupled assay with PpKGSADH, NADH at […] nm; format: biochemical; details: read-out: I50
T1 construct: gene PP_2836; C-terminal His6 tag (kept), pET vector, E. coli BL21(DE3), HisTrap purified
T1 sequence (Q88J13 1-405): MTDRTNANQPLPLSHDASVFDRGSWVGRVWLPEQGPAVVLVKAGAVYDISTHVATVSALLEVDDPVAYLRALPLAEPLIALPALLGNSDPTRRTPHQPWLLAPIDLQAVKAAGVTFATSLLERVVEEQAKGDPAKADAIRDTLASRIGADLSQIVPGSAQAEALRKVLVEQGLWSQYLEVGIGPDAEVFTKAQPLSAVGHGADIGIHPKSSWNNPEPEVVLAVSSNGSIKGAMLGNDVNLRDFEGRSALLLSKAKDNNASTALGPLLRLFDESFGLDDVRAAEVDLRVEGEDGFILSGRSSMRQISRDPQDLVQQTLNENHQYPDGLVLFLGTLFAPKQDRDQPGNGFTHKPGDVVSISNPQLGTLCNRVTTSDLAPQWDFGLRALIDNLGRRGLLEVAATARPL

[2] = substrate: O=C(O)C(=O)C[C@@H](O)CO; assay: purified protein; format: biochemical, Variovorax paradoxus; details: 2 mM NAD+ for coupling enzyme, 5 mM MgCl2, 50 mM HEPES pH 7.5, 25 °C

IC50 [1]: 75 mM
Molecule: O=C(O)[C@H](O)[C@@H](O)[C@H](O)CO [D-xylonate]

B1: VpL-KdpD (Variovorax paradoxus EPS) (protein)
chain: MPKPMNHNLSNPRYRGIFPVVPTTFTEQGALDLESQKRCVDFMIDAGSDGLCILANFSEQFVLSDEEREVLTRTMLEHVKGRVPVIVTTTHYSTKVCAERSRRAQDMGAAMLMVMPPYHGATFRVPEPQIFEFYAGLSDAVSIPIMIQDAPASGTVLSAPFLARMAKEIEHVAYFKIETANAAAKLRELIRLGGDAIEGPWDGEEAITLMPDLDAGATGSMTGGGYPDGIRPIIEAHRAGDRDKAFALYQQWLPLINYENRQAGLLACKSLMKEGGVIACEAPRHPLPAMHPATRAGLIETAKRLDPLVLRWGK
notes: N-terminal His6 tag (kept), pET vector, E. coli BL21(DE3), HisTrap purified
Km [2]: 150 ± 10 µM | kcat [2]: 21.8 ± 0.2 s⁻¹ | kcat/Km [2]: 146000 ± 200 M⁻¹ s⁻¹

Source: paper PMC7374468, “Characterization of highly active 2-keto-3-deoxy-L-arabinonate and 2-keto-3-deoxy-D-xylonate dehydratases in terms of the biotransformation of hemicellulose sugars to chemicals” (Applied Microbiology and Biotechnology, 2020)
